In patent publication US20240383964A1, “De Novo Designed alpha(5) beta(1) Integrin selective minibinders” (UNIVERSITY OF WASHINGTON, priority 2023, published 2024):

What was measured:
[1] = tested on: HUVECs; experiment: Tube formation assay; assay type: cell-based, human
Description: (§1) FIG. 2. (A) BLI binding affinity traces for minibinder or ^8RGD^10/GGG mutant against α5β1 in indicated buffers. Minibinder affinity to integrin α5β1 is dependent on metal ion presence and RGD motif. All affinity data was collected by Octet™ R8 and binding affinity was estimated by the Octet™ ForteBio software package. (B) Minibinder has no detectable affinity in presence of 500 nM or 1000 nM integrin αvβ1, αvβ3, αvβ6, αvβ8 and α8β1. (C) Cell surface titration of minibinder 4584_V5.3 and 00179_v4.1 against K562 cells wild type. […] Integrin α5 subunit and β1 subunit were stained with integrin α5 and active integrin β1 subunit specific antibody, respectively. (E) Quantification of (D). Quantification was counted as a percentage of mb-sheets that colocalized with staining of a5 and b1, a5 only, b1 only, or none; 30-35 sheets were counted in each biological repeat. […] Vascular stability was analyzed at 12-h timepoints. […] (G) Quantification of (F). The number of nodes, meshes, and tubes from images in (F) were quantified using an angiogenesis analyzer plug-in in ImageJ. Statistical significance of each were analyzed using One-way Anova Bonferroni's multiple comparison test. […] The wound area of T0 and T12 time points were quantified using imageJ and level of cell migration were calculated using this equation (AreaT0-T12)/AreaT0, all samples were normalized to PBS as fold change. […]

[2] = biological target: T1, α5β1 on K562 cells wild type (Homo sapiens, UniProt P05556+P08648); experiment: Cell surface titration of minibinder on wild type cells; assay type: cell-based; settings: α5β1 the only RGD binding integrin expressed
T1 construct: endogenous in cells; host or cells: K562 wild type (printed 'A562')
T1 sequence (P08648 42-894 limits assumed): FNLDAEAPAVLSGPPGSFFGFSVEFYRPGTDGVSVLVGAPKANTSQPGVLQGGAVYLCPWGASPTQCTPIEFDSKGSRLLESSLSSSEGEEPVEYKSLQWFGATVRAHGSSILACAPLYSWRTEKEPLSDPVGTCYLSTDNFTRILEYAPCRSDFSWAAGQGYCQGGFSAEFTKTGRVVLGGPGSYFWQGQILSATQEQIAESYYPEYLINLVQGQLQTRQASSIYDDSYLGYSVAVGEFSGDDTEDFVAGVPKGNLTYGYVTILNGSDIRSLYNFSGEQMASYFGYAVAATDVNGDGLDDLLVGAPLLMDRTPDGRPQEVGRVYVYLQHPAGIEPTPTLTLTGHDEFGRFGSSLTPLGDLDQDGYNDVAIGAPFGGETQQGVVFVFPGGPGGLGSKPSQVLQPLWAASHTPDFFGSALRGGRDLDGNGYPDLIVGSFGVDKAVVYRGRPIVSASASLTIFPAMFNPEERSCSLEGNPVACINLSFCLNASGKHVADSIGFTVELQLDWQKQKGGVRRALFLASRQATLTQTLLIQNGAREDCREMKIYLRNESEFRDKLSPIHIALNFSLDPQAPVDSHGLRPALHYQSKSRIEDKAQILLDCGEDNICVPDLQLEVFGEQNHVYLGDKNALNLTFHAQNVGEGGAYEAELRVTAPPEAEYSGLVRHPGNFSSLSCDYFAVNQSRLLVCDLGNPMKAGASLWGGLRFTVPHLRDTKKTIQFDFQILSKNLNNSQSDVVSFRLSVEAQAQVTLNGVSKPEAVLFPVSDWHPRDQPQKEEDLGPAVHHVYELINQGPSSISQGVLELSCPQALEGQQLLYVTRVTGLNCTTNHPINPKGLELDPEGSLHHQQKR
T1 sequence (P08648 895-1049 partner limits assumed): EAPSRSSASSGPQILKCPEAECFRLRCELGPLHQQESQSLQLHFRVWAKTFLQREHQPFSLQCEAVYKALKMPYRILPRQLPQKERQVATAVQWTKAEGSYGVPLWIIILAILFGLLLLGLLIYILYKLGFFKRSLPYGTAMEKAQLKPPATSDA
T1 sequence (P05556 21-798): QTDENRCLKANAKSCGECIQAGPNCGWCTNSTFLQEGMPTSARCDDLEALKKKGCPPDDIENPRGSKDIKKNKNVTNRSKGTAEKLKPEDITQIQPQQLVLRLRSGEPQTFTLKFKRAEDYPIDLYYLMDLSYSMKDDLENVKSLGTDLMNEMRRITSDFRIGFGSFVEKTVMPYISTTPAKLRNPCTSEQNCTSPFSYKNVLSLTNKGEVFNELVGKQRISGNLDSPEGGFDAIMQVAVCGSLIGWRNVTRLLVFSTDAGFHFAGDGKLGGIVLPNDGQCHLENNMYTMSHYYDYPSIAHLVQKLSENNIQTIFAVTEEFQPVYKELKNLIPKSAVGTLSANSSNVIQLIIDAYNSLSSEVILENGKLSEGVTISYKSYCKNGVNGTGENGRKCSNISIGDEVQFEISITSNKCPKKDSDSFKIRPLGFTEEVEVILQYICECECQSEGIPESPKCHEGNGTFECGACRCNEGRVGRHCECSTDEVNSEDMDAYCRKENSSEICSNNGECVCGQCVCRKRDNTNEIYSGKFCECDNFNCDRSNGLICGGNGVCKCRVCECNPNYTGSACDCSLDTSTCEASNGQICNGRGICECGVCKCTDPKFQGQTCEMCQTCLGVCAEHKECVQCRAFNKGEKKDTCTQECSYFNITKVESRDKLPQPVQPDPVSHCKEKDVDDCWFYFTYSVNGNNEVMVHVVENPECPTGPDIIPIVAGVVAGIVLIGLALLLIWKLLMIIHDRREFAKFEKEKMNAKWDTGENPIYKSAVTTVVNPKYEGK
Description: as §1

B1: 00179_v4.1: highest affinity α5β1 minibinder, sequence SELIIHGRGDFPSSELERLRERFERLGIKVRVDHKVLTLIGISEEEAERLARELRKRGIWVEIRK (protein)
chain: SELIIHGRGDFPSSELERLRERFERLGIKVRVDHKVLTLIGISEEEAERLARELRKRGIWVEIRK
In the case of B1, the vascular stability ([1]; HUVEC cells, 0, 0.1, 1, 10 and 100 nM, 12-h timepoint) is reported as “decrease in vascular stability”, the tube formation ([1]; HUVECs, 10 nM and 100 nM, 12 hours, compared to PBS control) is reported as “significantly attenuated” and the “binding affinity to α5β1 on the cell surface” value [2] is reported as “Nanomolar binding ability”.
